# From paper doi:10.1101/843383
# Columns and labels:
# [1] = molecular target: GST-Ubx NES-mutated (Drosophila); assay: pull-down
# [2] = molecular target: VC-Ubx^NES (NES-mutated full length Ubx fused to the C-terminal fragment of Venus) (Drosophila); assay: split reporter
Substance,percent loss of pulled-down Emb against wild type GST-Ubx [1] [%],percent decrease of BiFC fluorescence in the nucleus against wild type Ubx [2] [%]
"VC-Emb, in S2R+ cell extract (from UniProt Q9TVM2 1-1063) (natural protein)",30,
VN-Emb (Embargoed fused to the N-terminal fragment of Venus) (from UniProt Q9TVM2 1-1063) (natural protein),,40
